The values below come from paper doi:10.1101/2021.04.25.441346 (bioRxiv, 2021).

This assay addresses T1, GST-AFF1 (AUXIN RESPONSE FACTOR F-BOX1, At3g49150) (Arabidopsis thaliana, UniProt Q9M3B7 1-630).
T1 sequence (looked up): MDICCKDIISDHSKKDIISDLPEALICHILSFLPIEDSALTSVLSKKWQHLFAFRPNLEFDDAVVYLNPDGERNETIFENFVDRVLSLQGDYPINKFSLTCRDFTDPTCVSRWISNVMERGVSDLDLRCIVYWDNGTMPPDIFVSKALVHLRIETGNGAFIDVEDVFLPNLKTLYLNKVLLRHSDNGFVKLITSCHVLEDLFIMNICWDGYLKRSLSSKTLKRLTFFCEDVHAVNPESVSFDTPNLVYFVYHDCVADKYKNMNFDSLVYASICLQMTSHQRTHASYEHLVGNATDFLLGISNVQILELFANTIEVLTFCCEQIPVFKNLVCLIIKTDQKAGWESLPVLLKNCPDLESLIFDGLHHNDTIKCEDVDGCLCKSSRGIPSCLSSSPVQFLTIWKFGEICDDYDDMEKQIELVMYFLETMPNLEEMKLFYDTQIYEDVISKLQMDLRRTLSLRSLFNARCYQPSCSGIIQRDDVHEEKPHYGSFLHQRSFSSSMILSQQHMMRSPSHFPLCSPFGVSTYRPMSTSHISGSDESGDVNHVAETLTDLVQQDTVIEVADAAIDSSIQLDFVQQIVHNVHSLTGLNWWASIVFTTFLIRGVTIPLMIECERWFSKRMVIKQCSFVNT
Put plainly: pull-down.

B1: His-ASK1 (ARABIDOPSIS SKP1-LIKE 1) (natural protein, Arabidopsis thaliana, UniProt Q39255 1-160, looked up)
chain: MSAKKIVLKSSDGESFEVEEAVALESQTIAHMVEDDCVDNGVPLPNVTSKILAKVIEYCKRHVEAAASKAEAVEGAATSDDDLKAWDADFMKIDQATLFELILAANYLNIKNLLDLTCQTVADMIKGKTPEEIRTTFNIKNDFTPEEEEEVRRENQWAFE
For B1, the binding result was “binds”.
